Assay results reported in patent EP1828247B1.
Changes are numbered by the printed parent chain. Like-named read-outs stand apart in the source and are kept apart here.

Tests used:
[1] = target: West Nile virus strain USA99b (strain 385-99), whole virus (West Nile virus strain 385-99 (USA99b)); experiment: cell-based or functional assay
[2] = target: West Nile virus strain USA99b (strain 385-99), whole virus (West Nile virus strain 385-99 (USA99b))
[3] = target: West Nile virus strain USA99b (strain 385-99), whole virus (West Nile virus strain 385-99 (USA99b)); experiment: ELISA on irradiated WNV; IgG1 at 0.039 µg/ml
[4] = target: West Nile virus strain USA99b (strain 385-99), whole virus (West Nile virus strain 385-99 (USA99b)); experiment: ELISA on irradiated WNV; IgG1 at 0.078 µg/ml
[5] = target: West Nile virus strain USA99b (strain 385-99), whole virus (West Nile virus strain 385-99 (USA99b)); experiment: ELISA on irradiated WNV; IgG1 at 0.310 µg/ml
[6] = target: West Nile virus strain USA99b (strain 385-99), whole virus (West Nile virus strain 385-99 (USA99b)); experiment: ELISA on irradiated WNV; IgG1 at 0.630 µg/ml
[7] = target: West Nile virus strain USA99b (strain 385-99), whole virus (West Nile virus strain 385-99 (USA99b)); experiment: ELISA on irradiated WNV; IgG1 at 1.250 µg/ml
[8] = target: West Nile virus strain USA99b (strain 385-99), whole virus (West Nile virus strain 385-99 (USA99b)); experiment: ELISA on irradiated WNV; IgG1 at 2.500 µg/ml
[9] = target: West Nile virus strain USA99b (strain 385-99), whole virus (West Nile virus strain 385-99 (USA99b)); experiment: ELISA on irradiated WNV; IgG1 at 5.000 µg/ml
[10] = target: West Nile virus strain USA99b (strain 385-99), whole virus (West Nile virus strain 385-99 (USA99b)); experiment: ELISA on irradiated WNV; IgG1 at 10.000 µg/ml
[11] = target: West Nile virus strain USA99b (strain 385-99), whole virus (West Nile virus strain 385-99 (USA99b)); experiment: ELISA on irradiated WNV; IgG1 at 0.000 µg/ml (no antibody)
[12] = target: West Nile virus strain USA99b (strain 385-99), whole virus (West Nile virus strain 385-99 (USA99b)); experiment: ELISA on irradiated WNV; IgG1 at 0.160 µg/ml (printed 0.1.60)
[13] = target: West Nile virus CAR82 (strain ArB3573/82) (West Nile virus strain ArB3573/82); experiment: cell-based or functional assay
[14] = target: West Nile virus FRA00 (strain PaAn001) (West Nile virus strain PaAn001); experiment: cell-based or functional assay
[15] = target: West Nile virus MAD78 (strain DakAnMg798) (West Nile virus strain DakAnMg798); experiment: cell-based or functional assay
[16] = target: West Nile virus SEN90 (strain ArD-76104) (West Nile virus strain ArD-76104); experiment: cell-based or functional assay
[17] = target: West Nile virus TUN97 (strain paH001) (West Nile virus strain paH001); experiment: cell-based or functional assay
[18] = target: West Nile virus strain USA99b (strain 385-99), whole virus (West Nile virus strain 385-99 (USA99b)); experiment: cell-based or functional assay; remark: listed apart in the source
[19] = target: West Nile virus strain USA99b (strain 385-99), whole virus (West Nile virus strain 385-99 (USA99b)); experiment: ELISA on irradiated WNV; IgG1 at 20.000 µg/ml
[20] = target: West Nile virus strain USA99b (strain 385-99), whole virus (West Nile virus strain 385-99 (USA99b)); experiment: ELISA on irradiated WNV; IgG1 supernatant diluted 1:5
[21] = target: West Nile virus strain USA99b (strain 385-99), whole virus (West Nile virus strain 385-99 (USA99b)); experiment: ELISA on irradiated WNV; IgG1 supernatant diluted 1:25
[22] = target: West Nile virus strain USA99b (strain 385-99), whole virus (West Nile virus strain 385-99 (USA99b)); experiment: ELISA on irradiated WNV; IgG1 supernatant diluted 1:125 (printed 1.125)
[23] = target: West Nile virus strain USA99b (strain 385-99), whole virus (West Nile virus strain 385-99 (USA99b)); remark: listed apart in the source

B1: CR4361 (antibody, V domains shown)
VH: EVQLVQSGAEVKKPGESLKISCKASGFSFSTYWIGWVRQMPGKGLEWMGIIYPADSDTRYSPSFQGQVTISADKSISTAYLQWSSLKASDTAMYYCARLRGPYYDFWNGYRETHDAFNVWGQGTMVTVSS
VL: DVVMTQSPDSLAVSLGERATINCKSSQNILDNSDNKNFLAWYQQKPGQPPKLLIYWASARESGVPDRFSGSGSGTDFTLTISSLQAEDVALYYCQQYYNTPITFGQGTRLEIKR
How did the PRNT50 [1] turn out when B1 was run?
The PRNT50 was 2.03 µg/mL.

What about the PRNT90 [1] of the same binder?
The PRNT90 was over 100 µg/mL.

B2: CR4353 (antibody, V domains shown)
VH: QVQLVESGGGVVQPGRSLRLSCAASGFTFSNYAMHWVRQAPGKGLEWVAVISYDGGNKYYADSVKGRFTMSRDNSKNTLYLQMNSLRAEDTAVYYCARDFWSGYSMVDSYYYYMDVWGQGTTVTVSS
VL: ETTLTQSPGTLSLSPGERATLSCRASQSVSNTFLAWYQQKPGQAPRLLIYGASSRATGIPDRFSGSGSGTDFTLTISRLEPEDFAAYYCQQYGSSLTFGPGTKVDIKR
How did the Kd [2] turn out when B2 was run?
The Kd was 6.5 nM.

And the PRNT50 [1]?
The PRNT50 was 0.026 µg/mL.

And the PRNT90 [1]?
Its PRNT90 is 36.4 µg/mL.

What about the OD 492nm [3] of the same binder?
The OD 492nm was 0.595 OD 492nm.

What about the OD 492nm [4] of the same binder?
The OD 492nm was 0.734 OD 492nm.

And the OD 492nm [5]?
Its OD 492nm is 1.17 OD 492nm.

What about the OD 492nm [6] of the same binder?
The OD 492nm was 1.33 OD 492nm.

What about the OD 492nm [7] of the same binder?
The OD 492nm was 1.42 OD 492nm.

And the OD 492nm [8]?
The OD 492nm was 1.43 OD 492nm.

What about the OD 492nm [9] of the same binder?
The OD 492nm was 1.55 OD 492nm.

What about the OD 492nm [10] of the same binder?
Its OD 492nm is 1.57 OD 492nm.

And the OD 492nm [11]?
The OD 492nm was 0.003 OD 492nm.

And the OD 492nm [12]?
The OD 492nm was 1.07 OD 492nm.

B3: CR4374 (antibody, V domains shown)
VH: QITLKESGPTLVKPTQTLTLTCTFSGFSLSTSGVGVGWIRQPPGKALEWLAVIYWNDDKLYRPSLKSRLTITKDTSKNQVVLTMTKMDPVDTATYYCAHRHRYYDISGYYRLFSDAFDIWGQGTMVTVSS
VL: QSVLTQPPSVSGAPGQRVTISCTGSSSNIGAGYDVHWYQQLPGTAPKLLIYGNSNRPSGVPDRFSGSKSGTSASLAITGLQAEDEADYYCQSYDSSLSGSVFGGGTKLTVLG
B3 was tested. Which Kd [2] did it give?
The Kd was 56 nM.

And the PRNT50 [1]?
The PRNT50 was 0.18 µg/mL.

And the PRNT90 [1]?
The PRNT90 was 0.95 µg/mL.

What about the PRNT50 [13] of the same binder?
The PRNT50 was 0.14.

And the PRNT90 [13]?
The PRNT90 was 2.9.

What about the PRNT50 [14] of the same binder?
Its PRNT50 is 0.11.

And the PRNT90 [14]?
Its PRNT90 is 1.36.

What about the PRNT50 [15] of the same binder?
Its PRNT50 is 0.12.

And the PRNT90 [15]?
The PRNT90 was 4.12.

And the PRNT50 [16]?
The PRNT50 was 0.29.

And the PRNT90 [16]?
Its PRNT90 is 3.92.

What about the PRNT50 [17] of the same binder?
The PRNT50 was 0.03.

What about the PRNT90 [17] of the same binder?
The PRNT90 was 0.22.

And the PRNT50 [18]?
Its PRNT50 is 0.17.

What about the PRNT90 [18] of the same binder?
Its PRNT90 is 0.82.

And the OD 492nm [3]?
Its OD 492nm is 0.458 OD 492nm.

What about the OD 492nm [4] of the same binder?
The OD 492nm was 0.729 OD 492nm.

What about the OD 492nm [5] of the same binder?
Its OD 492nm is 1.24 OD 492nm.

What about the OD 492nm [6] of the same binder?
Its OD 492nm is 1.45 OD 492nm.

And the OD 492nm [7]?
The OD 492nm was 1.5 OD 492nm.

And the OD 492nm [8]?
The OD 492nm was 1.58 OD 492nm.

What about the OD 492nm [9] of the same binder?
The OD 492nm was 1.65 OD 492nm.

And the OD 492nm [10]?
Its OD 492nm is 1.72 OD 492nm.

And the OD 492nm [19]?
Its OD 492nm is 1.69 OD 492nm.

And the OD 492nm [20]?
Its OD 492nm is 2.32 OD 492nm.

What about the OD 492nm [21] of the same binder?
The OD 492nm was 2.27 OD 492nm.

What about the OD 492nm [11] of the same binder?
Its OD 492nm is 0.003 OD 492nm.

What about the OD 492nm [12] of the same binder?
Its OD 492nm is 0.997 OD 492nm.

What about the OD 492nm [22] of the same binder?
Its OD 492nm is 2.12 OD 492nm.

B4: CR5074 (antibody, V domains shown)
VH: B3 VH
VL: B3 VL with A31T, G52A, N53D, S54T, L80V, S95T, S98T, S100W, L108V
How did the Kd [23] turn out when B4 was run?
The Kd was 3.9 nM.

And the PRNT50 [1]?
The PRNT50 was 0.013 µg/mL.

And the PRNT90 [1]?
Its PRNT90 is 0.067 µg/mL.

B5: CR5080 (antibody, V domains shown)
VH: B3 VH
VL: B3 VL with S100W, V101A
Which results are given for B5?
Kd [23]: 2.7 nM; PRNT50 [1]: 0.016 µg/mL; PRNT90 [1]: 0.08 µg/mL

B6: CR5085 (antibody, V domains shown)
VH: B3 VH
VL: B3 VL with L4V, A86T, S98N, S100W
For B6, which Kd [23] is on record?
Its Kd is 3.7 nM.

What about the PRNT50 [1] of the same binder?
Its PRNT50 is 0.015 µg/mL.

And the PRNT90 [1]?
Its PRNT90 is 0.077 µg/mL.

B7: CR5088 (antibody, V domains shown)
VH: B3 VH
VL: B3 VL with L4V, V18I, L48F, S100W
Which results are given for B7?
Kd [23]: 1.7 nM; PRNT50 [1]: 0.017 µg/mL; PRNT90 [1]: 0.087 µg/mL
